Target: F-actin (rabbit, UniProt P68135 1-377)
Assay: co-sedimentation

B1: His6-neurabin (natural protein)
chain: not shown
For B1, the “stoichiometry N” value was ~8 actin molecules per His6-neurabin molecule.

Reference: article PMC2139968 (The Journal of Cell Biology, 1997)
